Patent publication US8357523B2, “Beta-glucosidase variant enzymes and related polynucleotides” (Codexis, Inc., priority 2009, dated 2013)
Changes are numbered by the printed parent chain. Numbers in names are those of the source.

Key:
Type in all cases: biochemical
[1] = High throughput cellobiose assay: fold improvement in cellobiase activity of CelA variants over a control enzyme (Tables 2A-2D, 3, 5, 6, 7); details: shown by improvement over a chain of controls, of which Variant No. 5 was directly compared to the wildtype
[2] = Activity profile at different temperatures and pH using cellobiose (10 g/L) as substrate
Method: β-glucosidase activity was also determined using a cellobiose assay, which used cellobiose as substrate. In a total volume of 100 μL, 25 μL clear media supernatant containing CelA enzyme was added to 10 g/L cellobiose (Fluka Cat. No. 22150, Sigma-Aldrich, Inc., St. Louis, Mo.) in 100 mM sodium phosphate buffer (pH 6-7) or sodium acetate buffer (pH 5-5.5). The reaction was incubated at 45-70° C. for an appropriate time (25 minutes to overnight depending on the enzyme concentration) while shaking. Glucose production was determined using an enzymatic glucose assay (K-GLUC, Megazyme, Ireland). 10 μl of each reaction was added to 190 μl GOPOD reagent (supplied as part of the K-GLUC assay kit). The reaction was incubated at 45° C. for 20 minutes and the absorbance of the solution was measured at 510 nm. The GOPOD reagent contains 50 mM Potassium phosphate buffer pH7.4, 0.011M p-hydroxybenzoic acid, 0.008% w/v sodium azide, glucose oxidase (>12,000 U/L), peroxidase (>650 U/L) and 80 mg/L 4-aminoantipyrine. The glucose oxidase enzyme in the reagent reacts with any glucose present in the sample and produces hydrogen peroxide which then reacts with the 4-aminoantipyrine to produce a quinoneimine dye in quantities proportionate with the amount of glucose present and can be measured spectrophotometrically at 510 nm. Detectable β-glucosidase activity was observed under high throughput screening conditions (i.e., pH 7, 50° C.).
The native CelA activity profile was investigated at different temperatures (40-55° C.) and pH (5.0-8.0) using cellobiose (10 g/L) as a substrate. The experimental and analytical procedures are described in Example 5.
The activity profiles for Variant Nos. 264, 366, 391, 463, and 529 were determined at different temperatures and pH using cellobiose (10 g/L) as a substrate. The experimental and analytical procedures are described in Example 5, incubating the variant with cellobiose at temperatures in the range of 45-80. The results are depicted in FIGS. 7-11. […] The temperature and pH profile for this variant is depicted in FIG. 7. […] The temperature and pH profile for this variant is depicted in FIG. 8. […] The temperature and pH profile for this variant is depicted in FIG. 9. […] (with the pH 6 optimum determined by extrapolation). The temperature and pH profile for this variant is depicted in FIG. 10. […] The temperature and pH profile for this variant is depicted in FIG. 11.

[3] = Saccharification of microcrystalline cellulose by Trichoderma reesei whole cellulase supplemented with β-glucosidase; details: 1 g/L TRWC alone or 25% of TRWC substituted with the β-glucosidase; 200 g/L Avicel, 100 g/L xylose, pH5.5, 55° C., 48 hours
Text: FIG. 12 illustrates the impact of supplementing a commercially available Trichoderma reesei whole cellulose (“TRWC”) mixture with a CelA variant of the present invention. Compositions containing TRWC were supplemented with β-glucosdiases CelA Variant No. 264 (“Cel var1”), CelA Variant No. 366 (“Cel var2”), and a commercially available Aspergillus niger β-glucosidase (“ANBG”) in a ratio of 3:1 TRWC to β-glucosidase. The effectiveness of each composition at hydrolyzing microcrystalline cellulose was evaluated as described in Example 15. A plot of glucose and cellobiose concentration (g/L) vs. cellulase composition is depicted. The control composition was TRWC with no added β-glucosidase.
The impact of adding a CelA variant of the present invention to commercially available cellulose mixtures and microcrystalline cellulose, Avicel™, was evaluated. In the test reactions, 1 g/L Trichoderma reesei whole cellulose (“TRWC”, Sigma catalog #C85456-10KU (ATCC 26921)) was used to convert 200 g/L of the microcrystalline cellulose Avicel™ (200 mM Sodium acetate; 100 g/L xylose, pH5.5 and 55° C.). The amount of glucose was measured after 48 hours of reaction. As a comparison, 25% of the TRWC was replaced with a β-glucosidase: Variant No. 264 (“Cel var1”), Variant No. 366 (“Cel var2”), or with the commercially available cellobiase, Aspergillus niger beta-glucosidase (“ANBG”, Sigma catalog #49291-1G). […]

[4] = Enzyme stability: residual activity on pNPG after pre-incubation at high temperature and low pH; details: residual activity on pNPG at pH 7, 30° C.
Method: Residual activity is determined by exposing the enzyme to stress conditions of elevated temperature for a period of time and then determining the β-glucosidase activity. The β-glucosidase activity of the enzyme exposed to stress conditions (“a”) is compared to that of a control in which the enzyme is not exposed to the stress conditions (“b”), and residual activity is equal to the ratio a/b. Exemplary conditions for determining thermostability are provided in Examples 9 and 13. In one embodiment the enzymes are exposed to stress conditions of 50° C. at pH 5.5 or 55° C. at pH 5.0 or 55° C. at pH 5.5, or 65° C. at pH 5.0 for about 1 hour, and assayed at 30° C., pH 7, for about 0.1 hour.
(§1) A colorimetric pNPG (p-nitrophenyl-(β-D-glucopyranoside)-based assay was used for measuring β-glucosidase activity. In a total volume of 100 μL, 20 μL clear media supernatant containing β-glucosidase enzyme was added to 4 mM pNPG (Sigma-Aldrich, Inc. St. Louis, Mo.) solution in 50 mM sodium phosphate buffer at pH6.5. The reactions were incubated at pH 6.5, 45° C. for 1 hour. The reaction mixture was quenched with 100 μL of 1M sodium carbonate pH 11 solution. The absorbance of the solution was measured at 405 nm to determine the conversion of pNPG to p-nitrophenol. The release of p-nitrophenol (ε=17,700 M−1 cm−1) was measured at 405 nm to calculate β-glucosidase activity. Detectable β-glucosidase activity was observed under high throughput screening conditions (pH 7, 50° C.).
Four CelA variants and wildtype CelA were characterized to determine their stabilities at high temperature (55° C.) and low pH (pH5.5) using the method of Example 5A. The samples containing various CelA variant enzymes were pre-incubated at pH 5.5, 55° C. for 0-6 hrs. The residual enzyme activity after the thermal challenge was measured using pNPG as substrate at pH 7, 30° C. for 1 hr. […] The mutations listed in the table are indicated relative to SEQ ID NO: 4, the wildtype CelA. These sequences included residues GTS prior to the N-terminus of SEQ ID NO: 4 (prepared as described in Example 1). […]

[5] = pNPG (p-nitrophenyl-β-D-glucopyranoside) assay of β-glucosidase activity; details: media supernatant of shake flask culture
Method: A single microbial colony of Bacillus megaterium containing the vector prepared in Example 1 with the CelA gene was inoculated into 3 ml Luria-Bertani (LB) Broth ([…]) containing 10 μg/mL tetracycline. Cells were grown overnight (at least 16 hrs) in an incubator at 37° C. with shaking at 250 rpm. […]
as §1, with “Detectable β-glucosidase activity was observed under high throughput screening conditions (pH 7, 50° C.).” left out

[6] = Activity profile at different temperatures and pH using cellobiose (10 g/L) as substrate; remark: listed apart in the source

B1: Variant No. 366 (protein)
chain: SAAITQEGAAPAAMLHPEKWPRPATQRLIDPAVEKRVDALLKQLSVEEKVGQVIQGDIGTITPEDLRKYPLGSILAGGDSGPNGDDRAPPKEWLDLADAFYRVSLEKRPGHTPIPVLFGIDAVHGHNNIGSATIFPHNIALGMTRDPELLRRIGEVTAEEMAATGIDWTFAPALSVVRDDRWGRTYEGFSEDPEIVASYSAAIVEGFQGKYGSKDFMAPGRAVACAKHFLADGGTDQGRDQGDARISEDELIRIHNAGYPPAIDAGVLTVMASFSSWQGIKHHGHKQLLTDVLKGQMGFNGFIVGDWNAHDQVPGCTKFNCPTSLIAGLDMYMAADSWKQLYENTLAQVKDGTIPMARLDDAVRRILRVKVLAGLFEKPAPKDRPGLPGLETLGSPEHRAVGREAVRKSLVLLKNDKGTLPLSPKARVLVAGDGADNIGKQSGGWTISWQGTGNRNDEFPGATSILGGIRDAVADAGGSVEFDVAGQYKTKPDVAIVVFGEEPYAEFRGDVETLEYQPDQKQDLTLLKKLKDQGIPVVAVFLSGRPMWVNPELNASDAFVAAWLPGTEGGGVADVLFTDKAGKVQHDFAGKLSYSWPRTAAQTTVNRGDADYNPLFAYGYGLTYKDKSKVGTLPEESGVPAEARQN
modifications: catalytic domain; signal sequence F-10T
activity (e.g., thermoactivity) over the wildtype A. irakense β-glucosidase, demonstrated indirectly [1]: improved activity
pH of optimum activity [2]: 6 pH
temperature of optimum activity [2]: 66 °C

B2: Variant No. 391 (protein)
chain: B1 chain with A3R, S73A, V177P, I203Y
modifications: catalytic domain
activity (e.g., thermoactivity) over the wildtype A. irakense β-glucosidase, demonstrated indirectly [1]: improved activity
pH of optimum activity [2]: 5.5 pH
temperature of optimum activity [2]: 69 °C

B3: T2A + A5T + I14M + N79D + G127N + A143M + H145R + V159E + A198S + V207F + F211Y + I222A + S225C + Q508R + A525T-des[A647-L663] (protein)
chain: B1 chain
cellobiose and glucose combined yielded in saccharification reaction [3]: comparable results

B4: Variant No. 463 (protein)
chain: B1 chain with A3R, S73A, T169N, V177P, A202P, I203Y, A272L, Q287R, D311G, E512G
modifications: catalytic domain
activity (e.g., thermoactivity) over the wildtype A. irakense β-glucosidase, demonstrated indirectly [1]: improved activity
temperature of optimum activity [2]: 69 °C
pH of optimum activity (determined by extrapolation) ([2]; pH optimum determined by extrapolation): 6 pH

B5: CelA wildtype: wildtype Azospirillum irakense β-glucosidase (CelA) (SEQ ID NO: 4) (protein)
chain: STAIAQEGAAPAAILHPEKWPRPATQRLIDPAVEKRVDALLKQLSVEEKVGQVIQGDIGTITPEDLRKYPLGSILAGGNSGPNGDDRAPPKEWLDLADAFYRVSLEKRPGHTPIPVLFGIDAVHGHGNIGSATIFPHNIALGATHDPELLRRIGEVTAVEMAATGIDWTFAPALSVVRDDRWGRTYEGFSEDPEIVAAYSAAIVEGVQGKFGSKDFMAPGRIVASAKHFLADGGTDQGRDQGDARISEDELIRIHNAGYPPAIDAGVLTVMASFSSWQGIKHHGHKQLLTDVLKGQMGFNGFIVGDWNAHDQVPGCTKFNCPTSLIAGLDMYMAADSWKQLYENTLAQVKDGTIPMARLDDAVRRILRVKVLAGLFEKPAPKDRPGLPGLETLGSPEHRAVGREAVRKSLVLLKNDKGTLPLSPKARVLVAGDGADNIGKQSGGWTISWQGTGNRNDEFPGATSILGGIRDAVADAGGSVEFDVAGQYKTKPDVAIVVFGEEPYAEFQGDVETLEYQPDQKQDLALLKKLKDQGIPVVAVFLSGRPMWVNPELNASDAFVAAWLPGTEGGGVADVLFTDKAGKVQHDFAGKLSYSWPRTAAQTTVNRGDADYNPLFAYGYGLTYKDKSKVGTLPEESGVPAEARQNAGIYFRAGALRLPGRFL
% residual activity after 10 mins @ pH 5.5, 55° C. ([4]; pre-incubation 10 mins at pH 5.5, 55° C., 1 hr): 0%
% residual activity after 1 hour @ pH 5.5, 55° C. ([4]; pre-incubation 1 hour at pH 5.5, 55° C.): 0%
% residual activity after 6 hours @ pH 5.5, 55° C. ([4]; pre-incubation 6 hours at pH 5.5, 55° C., 1 hr): 0%
pH of optimum activity [2]: 6.0 pH
temperature of optimum activity [2]: 47 °C
activity using pNPG as substrate [5]: confirmed
CelA activity at pH 4 and 70° C. [6]: detectable
